Test results as given in patent US20210261685A1 (Alector, published 2021).

T1: human MerTK extracellular domain (ECD), recombinant (human, UniProt Q12866 21-505)
T1 construct: also called huMerTK; not shown: polyHis tag or TEVS/Thrombin/murine IgG2a Fc tag
T1 sequence: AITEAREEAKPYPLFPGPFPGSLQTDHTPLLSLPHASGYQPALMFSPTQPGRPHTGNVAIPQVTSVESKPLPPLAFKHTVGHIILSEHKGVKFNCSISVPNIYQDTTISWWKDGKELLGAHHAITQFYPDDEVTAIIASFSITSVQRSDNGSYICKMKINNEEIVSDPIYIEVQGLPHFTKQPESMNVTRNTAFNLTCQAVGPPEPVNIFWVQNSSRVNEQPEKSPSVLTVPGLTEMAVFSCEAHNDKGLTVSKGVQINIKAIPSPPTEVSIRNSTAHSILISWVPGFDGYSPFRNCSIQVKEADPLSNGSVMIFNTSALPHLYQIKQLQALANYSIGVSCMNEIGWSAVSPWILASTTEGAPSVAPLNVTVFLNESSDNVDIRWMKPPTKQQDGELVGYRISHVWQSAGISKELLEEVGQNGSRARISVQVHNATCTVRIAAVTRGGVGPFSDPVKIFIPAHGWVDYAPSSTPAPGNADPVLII

T2: cyno MerTK extracellular domain (ECD), recombinant (cynomolgus monkey, UniProt Q12866 21-505 (human entry))
T2 construct: also called cynomolgus MerTK; not shown: polyHis tag or TEVS/Thrombin/murine IgG2a Fc tag
T2 chain: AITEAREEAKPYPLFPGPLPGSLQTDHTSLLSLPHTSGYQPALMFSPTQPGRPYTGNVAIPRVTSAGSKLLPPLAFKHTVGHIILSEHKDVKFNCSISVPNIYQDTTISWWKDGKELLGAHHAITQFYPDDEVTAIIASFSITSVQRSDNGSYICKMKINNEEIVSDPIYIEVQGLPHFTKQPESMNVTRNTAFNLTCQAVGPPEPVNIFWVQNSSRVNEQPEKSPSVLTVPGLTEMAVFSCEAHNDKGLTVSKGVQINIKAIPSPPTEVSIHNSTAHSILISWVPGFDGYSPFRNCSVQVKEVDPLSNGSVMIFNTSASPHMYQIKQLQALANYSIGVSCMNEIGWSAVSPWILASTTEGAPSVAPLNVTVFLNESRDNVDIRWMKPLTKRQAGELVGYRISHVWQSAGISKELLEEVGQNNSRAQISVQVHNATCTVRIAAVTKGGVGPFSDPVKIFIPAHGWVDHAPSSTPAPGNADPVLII

T3: murine MerTK extracellular domain (ECD), recombinant (mouse, UniProt Q60805 19-497)
T3 construct: also called moMerTK; mouse MerTK; not shown: polyHis tag or TEVS/Thrombin/murine IgG2a Fc tag
T3 sequence: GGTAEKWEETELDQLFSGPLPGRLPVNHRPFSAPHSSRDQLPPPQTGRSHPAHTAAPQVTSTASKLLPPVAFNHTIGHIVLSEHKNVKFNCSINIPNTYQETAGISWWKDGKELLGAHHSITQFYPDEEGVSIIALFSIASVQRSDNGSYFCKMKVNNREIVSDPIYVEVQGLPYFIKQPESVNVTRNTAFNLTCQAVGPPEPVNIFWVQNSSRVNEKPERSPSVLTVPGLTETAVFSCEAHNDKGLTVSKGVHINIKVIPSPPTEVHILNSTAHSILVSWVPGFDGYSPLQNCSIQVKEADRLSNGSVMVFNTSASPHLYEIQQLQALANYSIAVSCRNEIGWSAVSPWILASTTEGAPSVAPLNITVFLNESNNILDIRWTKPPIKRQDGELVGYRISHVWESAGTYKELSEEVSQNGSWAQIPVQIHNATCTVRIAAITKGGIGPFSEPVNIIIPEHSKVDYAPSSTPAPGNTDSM


Columns and labels:
Assay in all cases: SPR, Carterra LSA, antibody immobilised
[1] = target: T1, human MerTK extracellular domain (ECD), …
Experimental: (§1) Binding kinetics of human anti-MerTK IgG1 LALAPS antibodies of the present disclosure to human, cyno, and murine MerTK were evaluated using a Carterra LSA instrument (Carterra, Salt Lake City, Utah). Briefly, anti-MerTK antibodies were prepared by diluting to 10 μg/ml in 10 mM Acetate, pH 4.25 (Carterra), at 300 μl/well. A HC200M sensor chip (Carterra) was activated using the single channel flow cell with a 7-minute injection of a 1:1:1 mixture of 100 mM MES pH 5.5, 100 mM sulfo-NHS, 400 mM EDC (all reconstituted in MES pH 5.5; 100 μl of each mixed in vial immediately before running assay). After switching to the multi-channel array flow cell, the antibodies were injected over the activated chip in a 96-spot array for 15 minutes. The remaining unconjugated active groups on the chip were then blocked by injecting 1M Ethanolamine pH 8.5 (Carterra) for 7 minutes using the single channel flow cell.
(§2) After priming with running buffer (HBS-TE, Carterra) with 0.5 mg/ml BSA (Sigma), the immobilized anti-MerTK antibodies were tested for their ability to bind to several forms of recombinant MerTK extracellular domain, including human, cynomolgus, and mouse orthologs as described above. Estimates of affinity were generated by injecting each analyte over the entire antibody array using the single channel flow cell. MerTK analytes were diluted to 33.3, 100, and 300 nM in running buffer, and injected in serial from lowest to highest concentration without regeneration. Two buffer blanks were run between each series (one species per series). Data were processed and analyzed using NextGenKIT high-throughput kinetics analysis software (Carterra).
(§3) The equilibrium dissociation constants (KD) were then calculated from the fitted association and dissociation rate constants (k-on and k-off) for anti-MerTK antibodies of the present disclosure. Binding kinetic analysis was also performed on anti-MerTK antibodies H1 (BioLegend, Clone ID: 590H11G1E3), H2 (R&D systems, Clone ID: 125518), M6 (WO2016/106221), and CDX AB2000-A7 hIgG1 (WO2019/084307).

[2] = target: T2, cyno MerTK extracellular domain (ECD), …
Experimental: as §1, §2, §3

[3] = target: T3, murine MerTK extracellular domain …
Experimental: as §1, §2, §3

| Kd [1] [nM] | Kd [2] [nM] | binding result [3] | Kd [3] [nM] | Binder |
| --- | --- | --- | --- | --- |
| 2 | 1.9 | no binding (tested: 300 nM) | – | MTK-10 (antibody, human IgG1, V domains shown) VH: QVTLKESGPGILQPSQTLSLTCSFSGFSLTTSGMGVGWIRQPSGKGLEWLAHIWSDDDKRSNPALKSRLTISQDSSTNQVFLKIASVDTADSATYYCSHLTPVREFAYWGPGTLVTVSE VL: DIQMTQTTSSLSASLGDRVTISCSASQGISNYLNWFQQKPDGTVKLLIYYTSRLHSGVPSRFSGSGSGTDFSLTISNLEPEDIATYYCQQYTKLPYTFGGGTKLEIK |
| 41 | 44 | – | 55 | MTK-24 (antibody, human IgG1, V domains shown) VH: QVQLQQPGAELVKPGASVKLSCKASGYTFTSYWMHWVKQRPGQGLEWIGMIHPNINTNYNEKFKSKATLTVDISSSTAYMQLSSLTSEDSAVYYCAKRSPYSNYDWYFDVWGTGTTVTVSS VL: DIQMTQSPASLSVSVGETVTITCRASENIYSNLAWYQQKQGKSPQLLVYAATNLADGVPSRFSGSGSGTQYSLKINSLQSEDFGSYYCQHFWGTPLTFGAGTKLELK |
| 4.1 | 4.5 | no binding (tested: 300 nM) | – | MTK-28 (antibody, human IgG1, V domains shown) VH: QIQLVQSGPELKKPGETVKISCKASGYTFTTYGMSWVKQAPGKGLKWMGWINTYSGVPTYADDFKGRFAFSLETSASTAYLQINTLKNEDTTTYFCARFLRYYYFDYWGQGTTLTVSS VL: QIVLSQSPVILSASPGEKVTMTCRASSSVTYMHWYQQQPGSSPKPWIYATSNLASGVPARFSGSGSGTSYSLTISRVETEDAATYYCHQWSGNPTFGGGTKLEIN |
| 18 | 17 | no binding (tested: 300 nM) | – | MTK-06 (antibody, human IgG1, V domains shown) VH: QIQLVQSGPELKKPGETVKISCKASGYTFTNYGMNWVKQAPGKGLKWMGWINTNTGEPTYAEEFKGRFAFSLETSASTAYLQINNLKNEDTATYFCARYYNYWYFDVWGAGTTVTVSS VL: QIVLSQSPAILSASPGEKVTMTCRASSSVSYMHWYQQKPGSSPKPWIYATSNLASGVPARFSGSGSGTSYSLTISRVEAEDAATYYCQQWSSKPPTFGGGTKLEIK |
| 59 | 107 | – | 186 | MTK-32 (antibody, human IgG1, V domains shown) VH: QIQLVQSGPELKKPGETVKISCKASGYTFTSYGMSWVHQAPGKGLKWLGWINTYSGVPTYADDFRGRFAFSLDTSVSTASLEINNLQNEDTATYFCAREDNWAWFAYWGQGTLVTVST VL: QIVLSQSPAILSASPGEKVTMTCRATSSVGYMHWYQRKPGSSPKPWIYATSNLASGVPARFSGSGSGTSYSLTISRVEAEDAATYYCQQWSSNPRTFGGGTKLEIK |
| 14 | 13 | no binding (tested: 300 nM) | – | MTK-35 (antibody, human IgG1, V domains shown) VH: QVLLQQSGPELVKPGASVQLSCKASDYTFTSYDIHWVKQRPGQGLEWIGWIYPRDGYTKYNEIFKGKATLTVDTSSTTAYMELHSLTSEDSAVYFCARAYYTNWYYFDYWGQGTTLTVSS VL: EIVLTQSPTTMAASPGEKITITCRASSSISSHYLHWYQQKPGFSPKLLIYRTSNLASGVPARFSGSGSGTSYSLTIGTMEAEDVATYYCQQGSTIPLTFGAGTKLVLK |
| 37 | 39 | no binding (tested: 300 nM) | – | MTK-13 (antibody, human IgG1, V domains shown) VH: DVQLQESGPGLVKPSQSLSLTCSVTGYSITSGYYWNWIRQFPGNKLEWMGNIDYDGSNKYNPSLKNRISITRDTSKNHFFLKLNSVTPEDTATYFCARDGGNYRSFAYWGQGTLVTVSA VL: QIVLTQSPPIMSASPGEKVTITCSASSSVSYMYWFQQKPGTSPKLWIYSTFNLASGVPARFSGSGSGTSYSLTISRMEAEDVATYYCQQRSSYPFTFGSGTKLEIK |
| 30 | 30 | no binding (tested: 300 nM) | – | MTK-26 (antibody, human IgG1, V domains shown) VH: AVQFQESGPGLVKLSQSLSLTCSVTGYSITSGYYWDWIRQFPGNKLEWMGYISYDGSNNYNPSLKNRISITRDTSKNQFFLKLNSVTTEDTATYYCAREGGYYRSMDYWGQGTSVTVSS VL: QIVLTQSPAIMSASPGEKVTIACSASSSVSFMHWFQQKPGTSPRLWIYSTSNLASGVPARFSGSGSGTSYSLTISRMEAEDAATYYCQQRSSYPFTFGSGTKLEIK |
| 1.4 | 1.6 | no binding (tested: 300 nM) | – | MTK-16 (antibody, human IgG1, V domains shown) VH: LIQLVQSGPELKKPGETVKISCKASGYTFTNHGMNWVKQDPGKGLKWMGWINTYTGEPTYADDFKGRFVFSMETSASAAFLQINNLKNEDTATYFCARKGVTAARYFDYWGQGTTLTVSS VL: DIVMTQSPKFMSTSVGDRVSITCKASQNVRTAVAWYKKKPGQSPKALINLASNRHTGVPDRFTGSGSGTDFTLTISNVQSEDLADYFCLQHWNYPLTFGGGTKLEIK |
| 71 | 71 | no binding (tested: 300 nM) | – | MTK-27 (antibody, human IgG1, V domains shown) VH: EVQLQQSGTELVRPGASVKLSCTASGFNIKDDYMHWVQQRPEQGLEWIGWIDPENGNTEYASKFQGKATITADASSNTAYLQLSSLTSEDTAVYYCSTLFSNYFDYWGQGTTLTVSS VL: DIVMTQSQKFMSTSVGDRVSITCKASQNVRTSVAWYQQKPGQSPKALIYLASNRHTGVPDRFTGSGSGTDFTLTISNVRSEDLADYFCLQHWNYPYTFGGGTKLEIK |
| 23 | 24 | – | 30 | MTK-30 (antibody, human IgG1, V domains shown) VH: QVQLQQPGTELVRPGASVKLSCKASGYTFTSYWMHWVKQRPGQGLEWIGNLNPNNGGTYYNEKFKSKATLTVDKSSSTAYMQLSSLTSEDSAVYYCARQILLYFDYWGQGTTLTVSS VL: DVLMTQTPLSLPVSLGDQASISCRSSQSIVHSNGDTYLEWYLQKPGQSPKLLIYKVSNRFSGVPDRFSGSGSGTDFTLKISRVEAEDLGVYYCFQGSHVPWTFGGGTKLEIK |
| 81 | 91 | – | 165 | MTK-31 (antibody, human IgG1, V domains shown) VH: QIQLVQSGPELKKSGETVKISCKASGYTFTSYGMSWVKQAPGKGLKWMGWINTYSGVPTYADDFKGRFAFSLETSASTAYLQINNLKNEDTATYFCASLSYDGSLYHAMDYWGQGTSVTVSS VL: DVSMTQTPLSLPVSLGDQASISSRSSQTIVHSNGNTYLEWYLQKPGQSPKLLIYKVSNRFSGVPDRFSGSGSGTDFTLKISRVEAEDLGVYYCFQGSHVPWTFGGGTKLEIK |
